Test results as given in the FLAb antibody collection (doi:10.1101/2023.12.08.570889).

These binders were tested against ACVR2B, Q13705 (assay: Kd (SPR)).
Sequence of ACVR2B, Q13705 (Q13705 whole entry, looked up): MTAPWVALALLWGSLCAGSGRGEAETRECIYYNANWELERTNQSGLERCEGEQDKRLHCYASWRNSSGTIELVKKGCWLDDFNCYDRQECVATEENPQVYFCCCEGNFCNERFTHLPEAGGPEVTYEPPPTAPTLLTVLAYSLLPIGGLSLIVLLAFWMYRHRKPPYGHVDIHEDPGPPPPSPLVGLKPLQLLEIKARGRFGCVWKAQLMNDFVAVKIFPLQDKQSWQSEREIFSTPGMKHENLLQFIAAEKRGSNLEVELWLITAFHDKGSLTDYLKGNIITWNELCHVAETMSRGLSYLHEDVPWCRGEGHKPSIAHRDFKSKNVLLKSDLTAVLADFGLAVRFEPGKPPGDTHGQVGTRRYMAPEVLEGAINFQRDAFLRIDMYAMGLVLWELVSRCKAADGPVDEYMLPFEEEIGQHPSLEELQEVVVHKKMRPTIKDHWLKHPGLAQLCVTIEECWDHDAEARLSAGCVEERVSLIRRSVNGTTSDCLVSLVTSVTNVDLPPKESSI

Binder | Kd [nM]
unnamed (protein) chain 1: QVQLVQSGAEVKKPGASVKVSCKASGYTFTSSYINWVRQAPGQGLEWMGTINPVSGSTSYAQKFQGRVTMTRDTSISTAYMELSRLRSDDTAVYYCARNGYADYWGQGTLVTVSS chain 2: QSALTQPASVSGSPGQSITISCTGTSSDVGSYNYVNWYQQHPGKAPKLMIYGVSKRPSGVSNRFSGSKSGNTASLTISGLQAEDEADYYCGTFAGGSYYGVFGGGTKLTVL | 337
unnamed (protein) chain 1: QVQLVQSGAEVKKPGASVKVSCKASGYTFTSSYINWVRQAPGQGLEWMGTINPVSGSTSYAQKFQGRVTMTRDTSISTAYMELSRLRSDDTAVYYCARSGYMDYWGQGTLVTVSS chain 2: QSALTQPASVSGSPGQSITISCTGTSSDVGSYNYVNWYQQHPGKAPKLMIYGVSKRPSGVSNRFSGSKSGNTASLTISGLQAEDEADYYCGTFAGGSYYGVFGGGTKLTVL | 6.37
unnamed (protein) chain 1: QVQLVQSGAEVKKPGASVKVSCKASGYTFTSSHINWVRQAPGQGLEWMGTINPVTGNTSYAQKFQGRVTMTRDTSISTAYMELSRLRSDDTAVYYCARGGYFDYWGQGTLVTVSS chain 2: QSALTQPASVSGSPGQSITISCTGTSSDVGSYNYVNWYQQHPGKAPKLMIYGVSKRPSGVSNRFSGSKSGNTASLTISGLQAEDEADYYCGTFAGGSYYGVFGGGTKLTVL | 162
unnamed (protein) chain 1: QVQLVQSGAEVKKPGASVKVSCKASGYTFTSSYINWVRQAPGQGLEWMGTINPVSGSTSYAQKFQGRVTMTRDTSISTAYMELSRLRSDDTAVYYCARSGYFDYWGQGTLVTVSS chain 2: QSALTQPASVSGSPGQSITISCTGTSSDVGSYNYVNWYQQHPGKAPKLMIYGVSKRPSGVSNRFSGSKSGNTASLTISGLQAEDEADYYCGTFAGGSYYGVFGGGTKLTVL | 9.19
unnamed (protein) chain 1: QVQLVQSGAEVKKPGASVKVSCKASGYTFTSSYINWVRQAPGQGLEWMGTINPVTGNTSYAQKFQGRVTMTRDTSISTAYMELSRLRSDDTAVYYCARGGYFDYWGQGTLVTVSS chain 2: QSALTQPASVSGSPGQSITISCTGTSSDVGSYNYVNWYQQHPGKAPKLMIYGVSKRPSGVSNRFSGSKSGNTASLTISGLQAEDEADYYCGTFAGGSYYGVFGGGTKLTVL | 10.3
unnamed (protein) chain 1: QVQLVQSGAEVKKPGASVKVSCKASGYTFTSSYINWVRQAPGQGLEWMGTINPVSGSTSYAQKFQGRVTMTRDTSISTAYMELSRLRSDDTAVYYCARGGYFDVWGQGTLVTVSS chain 2: QSALTQPASVSGSPGQSITISCTGTSSDVGSYNYVNWYQQHPGKAPKLMIYGVSKRPSGVSNRFSGSKSGNTASLTISGLQAEDEADYYCGTFAGGSYYGVFGGGTKLTVL | 26.2

Next, values leading:

Kd [nM] | Binder
704 | unnamed (protein) chain 1: QVQLVQSGAEVKKPGASVKVSCKASGYTFTSSYINWVRQAPGQGLEWMGTINPVSGSTSYAQKFQGRVTMTRDTSISTAYMELSRLRSDDTAVYYCARGGEFDYWGQGTLVTVSS chain 2: QSALTQPASVSGSPGQSITISCTGTSSDVGSYNYVNWYQQHPGKAPKLMIYGVSKRPSGVSNRFSGSKSGNTASLTISGLQAEDEADYYCGTFAGGSYYGVFGGGTKLTVL
234 | unnamed (protein) chain 1: QVQLVQSGAEVKKPGASVKVSCKASGYTFTSTGINWVRQAPGQGLEWMGTINPVTGGTSYAQKFQGRVTMTRDTSISTAYMELSRLRSDDTAVYYCARGGYFDYWGQGTLVTVSS chain 2: QSALTQPASVSGSPGQSITISCTGTSSDVGSYNYVNWYQQHPGKAPKLMIYGVSKRPSGVSNRFSGSKSGNTASLTISGLQAEDEADYYCGTFAGGSYYGVFGGGTKLTVL
292 | unnamed (protein) chain 1: QVQLVQSGAEVKKPGASVKVSCKASGYRFTSSGINWVRQAPGQGLEWMGTINPVTGNTSYAQKFQGRVTMTRDTSISTAYMELSRLRSDDTAVYYCARGGYFDYWGQGTLVTVSS chain 2: QSALTQPASVSGSPGQSITISCTGTSSDVGSYNYVNWYQQHPGKAPKLMIYGVSKRPSGVSNRFSGSKSGNTASLTISGLQAEDEADYYCGTFAGGSYYGVFGGGTKLTVL
153 | unnamed (protein) chain 1: QVQLVQSGAEVKKPGASVKVSCKASGYTFTSSYINWVRQAPGQGLEWMGTINPVSGSTSYAQKFQGRVTMTRDTSISTAYMELSRLRSDDTAVYYCARGGYVDYWGQGTLVTVSS chain 2: QSALTQPASVSGSPGQSITISCTGTSSDVGSYNYVNWYQQHPGKAPKLMIYGVSKRPSGVSNRFSGSKSGNTASLTISGLQAEDEADYYCGTFAGGSYYGVFGGGTKLTVL
